{
  "source": "paper PMC7968997",
  "assay_in_all_cases": "fluorescence polarization",
  "key": {"[1]": {"target": "T1, RRM2 analog R122A (Homo sapiens, UniProt Q8IUH3 23-202, F29A;F70A;R122A)", "T1 sequence": "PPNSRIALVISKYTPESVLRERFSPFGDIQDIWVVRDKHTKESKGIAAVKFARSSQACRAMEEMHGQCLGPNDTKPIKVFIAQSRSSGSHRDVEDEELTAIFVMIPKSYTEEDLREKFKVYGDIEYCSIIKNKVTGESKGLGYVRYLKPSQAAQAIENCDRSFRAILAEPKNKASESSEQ"}, "[2]": {"target": "T2, RRM1 analog F29A (Homo sapiens, UniProt Q8IUH3 23-202, F29A;F124A;Y165A)", "T2 sequence": "T1 sequence with A48F, A100R, F102A, Y143A"}, "[3]": {"target": "T3, RRM1 analog D53A (Homo sapiens, UniProt Q8IUH3 23-202, D53A;F124A;Y165A)", "T3 sequence": "T1 sequence with A7F, D31A, A48F, A100R, F102A, Y143A"}, "[4]": {"target": "T4, RBM45 RRM1-2 WT (Homo sapiens, UniProt Q8IUH3 23-202)", "T4 sequence": "T1 sequence with A7F, A48F, A100R"}, "[5]": {"target": "T5, RRM2 analog F124A (Homo sapiens, UniProt Q8IUH3 23-202, F29A;F70A;F124A)", "T5 sequence": "T1 sequence with A100R, F102A"}, "[6]": {"target": "T6, RBM45 RRM1-2 quadruple mutant (Homo sapiens, UniProt Q8IUH3 23-202, F29A;F70A;F124A;Y165A)", "T6 sequence": "T1 sequence with A100R, F102A, Y143A"}},
  "note": "Numbering of substitutions follows the chain as printed.",
  "data": [
    {"binder": "GGACGG (ssRNA)", "note": "[GGACGG RNA]", "values": [
      {"measurement": "Kd", "setting": "[1]", "result": 18.7, "unit": "µM"},
      {"measurement": "Kd", "setting": "[2]", "result": 7.38, "unit": "µM"},
      {"measurement": "Kd", "setting": "[3]", "result": 1.99, "unit": "µM"},
      {"measurement": "Kd", "setting": "[4]", "result": "0.457 ± 0.053", "unit": "µM"},
      {"measurement": "Kd", "setting": "[5]", "result": 15.6, "unit": "µM"},
      {"measurement": "binding signal", "setting": "[6]", "result": "~150", "unit": "fold decrease vs WT"}
    ]}
  ]
}
